In IntAct's records for PubMed 31515488:

B1: Transcription factor 12 (Homo sapiens), Q99081-3 (parent)
chain: MNPQQQRMAAIGTDKELSDLLDFSAMFSPPVNSGKTRPTTLGSSQFSGSGIDERGGTTSWGTSGQPSPSYDSSRGFTDSPHYSDHLNDSRLGAHEGLSPTPFMNSNLMGKTSERGSFSLYSRDTGLPGCQSSLLRQDLGLGSPAQLSSSGKPGTAYYSFSATSSRRRPLHDSAALDPLQAKKVRKVPPGLPSSVYAPSPNSDDFNRESPSYPSPKPPTSMFASTFFMQDGTHNSSDLWSSSNGMSQPGFGGILGTSTSHMSQSSSYGNLHSHDRLSYPPHSVSPTDINTSLPPMSSFHRGSTSSSPYVAASHTPPINGSDSILGTRGNAAGSSQTGDALGKALASIYSPDHTSSSFPSNPSTPVGSPSPLTGTSQWPRPGGQAPSSPSYENSLHSLKNRVEQQLHEHLQDAMSFLKDVCEQSRMEDRLDRLDDAIHVLRNHAVGPSTSLPAGHSDIHSLLGPSHNAPIGSLNSNYGGSSLVASSRSASMVGTHREDSVSLNGNHSVLSSTVTTSSTDLNHKTQENYRGGLQSQSGTVVTTEIKTENKEKDENLHEPPSSDDMKSDDESSQKDIKVSSRGRTSSTNEDEDLNPEQKIEREKERRMANNARERLRVRDINEAFKELGRMCQLHLKSEKPQTKLLILHQAVAVILSLEQQVRERNLNPKAACLKRREEEKVSAVSAEPPTTLPGTHPGLSETTNPMGHM
partner: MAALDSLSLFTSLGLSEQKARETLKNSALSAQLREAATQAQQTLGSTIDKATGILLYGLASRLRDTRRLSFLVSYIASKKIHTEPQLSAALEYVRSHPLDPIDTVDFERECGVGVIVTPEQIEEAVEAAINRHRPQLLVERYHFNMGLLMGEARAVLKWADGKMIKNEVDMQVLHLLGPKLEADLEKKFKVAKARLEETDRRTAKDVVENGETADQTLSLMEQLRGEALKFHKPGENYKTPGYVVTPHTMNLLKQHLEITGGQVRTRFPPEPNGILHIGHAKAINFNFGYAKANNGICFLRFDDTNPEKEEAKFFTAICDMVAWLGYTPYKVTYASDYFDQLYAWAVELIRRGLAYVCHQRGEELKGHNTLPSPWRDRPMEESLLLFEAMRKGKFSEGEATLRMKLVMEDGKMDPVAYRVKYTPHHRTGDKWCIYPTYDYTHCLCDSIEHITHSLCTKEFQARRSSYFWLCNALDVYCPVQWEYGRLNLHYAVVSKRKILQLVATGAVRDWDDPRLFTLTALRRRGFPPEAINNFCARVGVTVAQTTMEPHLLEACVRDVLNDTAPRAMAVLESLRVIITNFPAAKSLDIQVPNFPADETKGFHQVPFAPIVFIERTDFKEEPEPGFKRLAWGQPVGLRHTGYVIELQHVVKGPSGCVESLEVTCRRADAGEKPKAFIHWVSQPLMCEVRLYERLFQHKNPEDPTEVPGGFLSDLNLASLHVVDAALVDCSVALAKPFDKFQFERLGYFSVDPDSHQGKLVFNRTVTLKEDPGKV
B2: Tyrosine aminotransferase (Homo sapiens), P17735 (parent)
chain: MDPYMIQMSSKGNLPSILDVHVNVGGRSSVPGKMKGRKARWSVRPSDMAKKTFNPIRAIVDNMKVKPNPNKTMISLSIGDPTVFGNLPTDPEVTQAMKDALDSGKYNGYAPSIGFLSSREEIASYYHCPEAPLEAKDVILTSGCSQAIDLCLAVLANPGQNILVPRPGFSLYKTLAESMGIEVKLYNLLPEKSWEIDLKQLEYLIDEKTACLIVNNPSNPCGSVFSKRHLQKILAVAARQCVPILADEIYGDMVFSDCKYEPLATLSTDVPILSCGGLAKRWLVPGWRLGWILIHDRRDIFGNEIRDGLVKLSQRILGPCTIVQGALKSILCRTPGEFYHNTLSFLKSNADLCYGALAAIPGLRPVRPSGAMYLMVGIEMEHFPEFENDVEFTERLVAEQSVHCLPATCFEYPNFIRVVITVPEVMMLEACSRIQEFCEQHYHCAEGSQEECDK
B3: Cyclin-D1-binding protein 1 (Homo sapiens), O95273 (parent)
chain: MASATAPAAAVPTLASPLEQLRHLAEELRLLLPRVRVGEAQETTEEFNREMFWRRLNEAAVTVSREATTLTIVFSQLPLPSPQETQKFCEQVHAAIKAFIAVYYLLPKDQGITLRKLVRGATLDIVDGMAQLMEVLSVTPTQSPENNDLISYNSVWVACQQMPQIPRDNKAAALLMLTKNVDFVKDAHEEMEQAVEECDPYSGLLNDTEENNSDNHNHEDDVLGFPSNQDLYWSEDDQELIIPCLALVRASKACLKKIRMLVAENGKKDQVAQLDDIVDISDEISPSVDDLALSIYPPMCHLTVRINSAKLVSVLKKALEITKASHVTPQPEDSWIPLLINAIDHCMNRIKELTQSELEL
partner: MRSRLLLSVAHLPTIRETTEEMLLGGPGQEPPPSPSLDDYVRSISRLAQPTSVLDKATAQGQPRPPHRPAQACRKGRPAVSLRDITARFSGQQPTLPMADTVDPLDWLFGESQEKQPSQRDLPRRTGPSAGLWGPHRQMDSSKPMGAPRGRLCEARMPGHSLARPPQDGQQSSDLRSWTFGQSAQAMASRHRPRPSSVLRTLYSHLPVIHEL
B4: Isoform 1 of Ras association domain-containing protein 2 (Homo sapiens), P50749-1 (parent)
chain: MDYSHQTSLVPCGQDKYISKNELLLHLKTYNLYYEGQNLQLRHREEEDEFIVEGLLNISWGLRRPIRLQMQDDNERIRPPPSSSSWHSGCNLGAQGTTLKPLTVPKVQISEVDAPPEGDQMPSSTDSRGLKPLQEDTPQLMRTRSDVGVRRRGNVRTPSDQRRIRRHRFSINGHFYNHKTSVFTPAYGSVTNVRINSTMTTPQVLKLLLNKFKIENSAEEFALYVVHTSGEKQKLKATDYPLIARILQGPCEQISKVFLMEKDQVEEVTYDVAQYIKFEMPVLKSFIQKLQEEEDREVKKLMRKYTVLRLMIRQRLEEIAETPATI
partner: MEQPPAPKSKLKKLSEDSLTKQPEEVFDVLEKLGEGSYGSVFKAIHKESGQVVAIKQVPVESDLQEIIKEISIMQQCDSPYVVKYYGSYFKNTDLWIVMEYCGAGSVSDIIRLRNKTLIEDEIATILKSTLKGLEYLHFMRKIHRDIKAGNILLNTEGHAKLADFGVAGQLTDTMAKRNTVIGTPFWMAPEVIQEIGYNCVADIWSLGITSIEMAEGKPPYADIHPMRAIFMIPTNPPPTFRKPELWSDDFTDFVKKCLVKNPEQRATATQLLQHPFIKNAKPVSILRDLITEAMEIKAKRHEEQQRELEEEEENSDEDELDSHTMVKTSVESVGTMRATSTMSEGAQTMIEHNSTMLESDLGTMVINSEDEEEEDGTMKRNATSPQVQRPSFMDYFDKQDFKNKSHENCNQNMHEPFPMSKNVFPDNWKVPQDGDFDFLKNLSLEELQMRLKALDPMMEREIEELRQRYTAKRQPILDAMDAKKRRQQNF
B5: Alpha-taxilin (Homo sapiens), P40222 (parent)
chain: MKNQDKKNGAAKQSNPKSSPGQPEAGPEGAQERPSQAAPAVEAEGPGSSQAPRKPEGAQARTAQSGALRDVSEELSRQLEDILSTYCVDNNQGGPGEDGAQGEPAEPEDAEKSRTYVARNGEPEPTPVVNGEKEPSKGDPNTEEIRQSDEVGDRDHRRPQEKKKAKGLGKEITLLMQTLNTLSTPEEKLAALCKKYAELLEEHRNSQKQMKLLQKKQSQLVQEKDHLRGEHSKAVLARSKLESLCRELQRHNRSLKEEGVQRAREEEEKRKEVTSHFQVTLNDIQLQMEQHNERNSKLRQENMELAERLKKLIEQYELREEHIDKVFKHKDLQQQLVDAKLQQAQEMLKEAEERHQREKDFLLKEAVESQRMCELMKQQETHLKQQLALYTEKFEEFQNTLSKSSEVFTTFKQEMEKMTKKIKKLEKETTMYRSRWESSNKALLEMAEEKTVRDKELEGLQVKIQRLEKLCRALQTERNDLNKRVQDLSAGGQGSLTDSGPERRPEGPGAQAPSSPRVTEAPCYPGAPSTEASGQTGPQEPTSARA

Variants of: B1
Conditions: with syq_human QARS1, P47897

effect of a mutation on the interaction | Variant
with no effect | N606H
with no effect | A155T
with no effect | S446F

Variants of: B2
Conditions: with ube3a_human UBE3A

effect of a mutation on the interaction | Variant
disrupting interaction strength | R119W

Variants of: B3
Conditions: with depp1_human DEPP1, Q9NTK1

effect of a mutation on the interaction | Variant
disrupting interaction strength | I277T

Variants of: B4
Conditions: with stk3_human STK3, Q13188

effect of a mutation on the interaction | Variant
with no effect | R144H

Variants of: B5
Conditions: with cc136_human CCDC136, Q96JN2
Chain of cc136_human CCDC136, Q96JN2 (Q96JN2 whole entry): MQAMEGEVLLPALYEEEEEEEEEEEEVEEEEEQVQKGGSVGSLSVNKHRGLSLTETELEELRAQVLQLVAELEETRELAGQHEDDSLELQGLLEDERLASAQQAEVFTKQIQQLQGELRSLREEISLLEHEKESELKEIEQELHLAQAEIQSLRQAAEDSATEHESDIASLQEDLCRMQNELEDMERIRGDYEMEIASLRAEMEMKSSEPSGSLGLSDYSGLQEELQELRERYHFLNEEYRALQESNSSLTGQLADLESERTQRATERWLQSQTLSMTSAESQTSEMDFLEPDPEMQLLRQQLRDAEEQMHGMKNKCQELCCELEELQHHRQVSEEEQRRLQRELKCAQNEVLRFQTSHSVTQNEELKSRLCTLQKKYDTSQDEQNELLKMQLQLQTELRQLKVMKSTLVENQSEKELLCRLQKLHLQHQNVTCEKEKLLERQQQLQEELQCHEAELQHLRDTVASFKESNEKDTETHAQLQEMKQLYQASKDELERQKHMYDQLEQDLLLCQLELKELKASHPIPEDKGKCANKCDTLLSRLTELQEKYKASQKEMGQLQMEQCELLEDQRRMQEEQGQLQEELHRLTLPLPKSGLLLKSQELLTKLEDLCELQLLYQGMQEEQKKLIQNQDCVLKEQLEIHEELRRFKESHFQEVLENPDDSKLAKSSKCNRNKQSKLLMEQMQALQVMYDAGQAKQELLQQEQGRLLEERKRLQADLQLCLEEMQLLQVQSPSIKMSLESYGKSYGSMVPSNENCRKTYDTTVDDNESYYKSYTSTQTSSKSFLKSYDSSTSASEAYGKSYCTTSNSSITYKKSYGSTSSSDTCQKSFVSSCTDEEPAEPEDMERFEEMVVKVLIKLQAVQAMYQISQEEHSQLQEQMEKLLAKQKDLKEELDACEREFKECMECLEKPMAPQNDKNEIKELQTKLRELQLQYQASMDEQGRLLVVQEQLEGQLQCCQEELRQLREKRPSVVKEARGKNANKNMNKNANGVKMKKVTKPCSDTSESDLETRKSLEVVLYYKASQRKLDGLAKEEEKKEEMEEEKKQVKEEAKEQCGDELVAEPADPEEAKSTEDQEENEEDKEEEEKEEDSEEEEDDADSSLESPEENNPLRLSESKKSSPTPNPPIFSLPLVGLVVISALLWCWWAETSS

effect of a mutation on the interaction | Variant
with no effect | S514R
with no effect | P541S

Variants of: B5
Conditions: with tfp11_human TFIP11, Q9UBB9
Chain of tfp11_human TFIP11, Q9UBB9 (Q9UBB9 whole entry): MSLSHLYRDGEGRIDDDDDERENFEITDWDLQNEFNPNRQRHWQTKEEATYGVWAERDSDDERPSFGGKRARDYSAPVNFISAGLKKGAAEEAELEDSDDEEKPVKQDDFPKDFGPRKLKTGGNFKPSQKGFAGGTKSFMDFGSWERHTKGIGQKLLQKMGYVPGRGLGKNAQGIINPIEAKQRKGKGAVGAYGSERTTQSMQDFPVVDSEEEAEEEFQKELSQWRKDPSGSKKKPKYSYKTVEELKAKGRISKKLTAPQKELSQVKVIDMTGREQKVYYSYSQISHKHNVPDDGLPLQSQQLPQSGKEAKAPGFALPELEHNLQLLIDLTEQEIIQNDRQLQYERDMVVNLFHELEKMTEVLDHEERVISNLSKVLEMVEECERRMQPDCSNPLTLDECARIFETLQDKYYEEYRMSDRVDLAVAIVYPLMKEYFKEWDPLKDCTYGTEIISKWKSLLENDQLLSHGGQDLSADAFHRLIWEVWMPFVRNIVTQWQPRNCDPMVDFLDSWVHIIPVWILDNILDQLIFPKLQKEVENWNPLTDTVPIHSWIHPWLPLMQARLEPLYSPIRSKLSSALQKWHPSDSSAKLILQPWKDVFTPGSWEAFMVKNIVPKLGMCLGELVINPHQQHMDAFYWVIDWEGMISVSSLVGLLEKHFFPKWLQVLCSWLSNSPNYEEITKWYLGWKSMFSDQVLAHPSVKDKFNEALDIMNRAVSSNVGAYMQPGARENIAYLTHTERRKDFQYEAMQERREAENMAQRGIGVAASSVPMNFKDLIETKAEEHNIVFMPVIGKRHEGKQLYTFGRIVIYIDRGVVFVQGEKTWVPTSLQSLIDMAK

effect of a mutation on the interaction | Variant
with no effect | S514R
with no effect | P541S

Variants of: B5
Conditions: with ndc80_human NDC80, O14777
Chain of ndc80_human NDC80, O14777 (O14777 whole entry): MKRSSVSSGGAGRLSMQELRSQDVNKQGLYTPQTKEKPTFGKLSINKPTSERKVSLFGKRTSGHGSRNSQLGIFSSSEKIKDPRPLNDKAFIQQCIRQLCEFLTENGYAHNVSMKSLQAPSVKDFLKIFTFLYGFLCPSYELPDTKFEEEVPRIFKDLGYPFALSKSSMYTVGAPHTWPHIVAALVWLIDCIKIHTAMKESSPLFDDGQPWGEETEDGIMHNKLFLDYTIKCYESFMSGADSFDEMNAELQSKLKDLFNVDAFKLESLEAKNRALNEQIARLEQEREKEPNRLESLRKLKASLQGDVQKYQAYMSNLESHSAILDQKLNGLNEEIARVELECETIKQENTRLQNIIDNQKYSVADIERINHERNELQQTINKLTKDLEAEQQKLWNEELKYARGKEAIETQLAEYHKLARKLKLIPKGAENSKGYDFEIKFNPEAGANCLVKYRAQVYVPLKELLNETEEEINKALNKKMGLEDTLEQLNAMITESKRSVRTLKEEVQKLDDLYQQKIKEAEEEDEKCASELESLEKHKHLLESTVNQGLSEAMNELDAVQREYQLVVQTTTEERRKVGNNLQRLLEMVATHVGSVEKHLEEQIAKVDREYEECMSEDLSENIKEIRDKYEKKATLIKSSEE

effect of a mutation on the interaction | Variant
with no effect | S514R
with no effect | P541S
